Experimental data published in patent US20220362394A1, “ANTI-BCMA ANTIBODY CONJUGATES” (SUTRO BIOPHARMA, INC., priority 2019, published 2022).
Positions count from the first letter of the chain named.

Tests used:
[1] = target: T1, human BCMA-Fc (Homo sapiens, UniProt Q02223); experiment: Biacore kinetics, human BCMA-Fc; assay type: binding; conditions: 25° C., 1-1 Langmuir model
T1 construct: purchased R&D Systems
T1 sequence (Q02223 1-54 limits assumed): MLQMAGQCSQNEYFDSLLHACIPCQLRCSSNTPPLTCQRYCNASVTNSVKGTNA
Protocol: Anti-Fab or anti-Fc polyclonal antibodies were immobilized onto a CM5 chip (GE Life Sciences) using amine coupling chemistry (from Amine Coupling Kit, GE Life Sciences). The immobilization steps were carried out at a flow rate of 25 μL/min in 1×HBS-EP+ buffer (GE Life Sciences; 10× Stock diluted before use). The sensor surfaces were activated for 7 min with a mixture of NHS (0.05 M) and EDC (0.2 M). The anti-Fab or anti-Fc antibodies were injected over all 4 flow cells at a concentration of 25 μg/ml in 10 mM sodium acetate, pH 4.5, for 7 min. Ethanolamine (1 M, pH 8.5) was injected for 7 min to block any remaining activated groups. An average of 12,000 response units (RU) of capture antibody was immobilized on each flow cell.
Off-rate and kinetic binding experiments were performed at 25° C. using 1×HBS-EP+ buffer. Test and control antibodies were injected over the anti-Fab or anti-Fc surface at concentrations of 5-10 μg/mL for 12 seconds at a flow rate of 10 μL/min on flow cells 2, 3 and 4, followed by a buffer wash for 30 seconds at the same flow rate. […]
The data was fit with the Biacore T200 Evaluation software, using a 1-1 Langmuir binding model. KD (affinity, nM) was determined as a ratio of the kinetic rate constants calculated from the fits of the association and dissociation phases.

[2] = tested on: ARP-1; experiment: Cell killing with drug-conjugated 2° antibody (internalization), ARP-1; assay type: cell-based, human; conditions: 72 hrs; for Span (%): Conjugate P 2° antibody 20 nM; for EC50: Conjugate P 2° antibody (hemiasterlin, cleavable linker) 20 nM
Protocol: (§1) The internalization of the antibodies was evaluated by drugs conjugated to secondary antibodies in a cell killing assay on BCMA positive cells. BCMA-positive cell lines ARP-1 and U266B1 were used to screen for internalizing leads. Cells were washed twice with calcium and magnesium-free Dulbecco's phosphate-buffered saline (DPBS), harvested with Accutase® (Innovative Cell Technologies; San Diego, Calif.) and counted by the Vi-CELL Cell Viability Analyzers (Beckman Coulter, Brea, Calif.). A total of 12,500 cells in a volume of 25 microliter were seeded in a 384-well flat bottom white polystyrene plate (Greiner Bio-One, Monroe, N.C.) on the day of assay. Lead antibodies were formulated at 4× starting concentration in the cell culture medium and filtered through MultiScreenHTS 96-Well Filter Plates (Millipore; Billerica, Mass.). 12.5 μL of the serial diluted antibody (1:3 serial dilution starting from 100 nM) was added into treatment wells and 12.5 μL of an anti-human nanobody conjugated to according to Conjugate P (hemiasterlin via a cleavable linker) or according to Conjugate M (maytansinoid via a non-cleavable linker) was then added into each well at a fixed final concentration of 20 nM. […] Data was fitted with non-linear regression analysis, using a log(inhibitor) vs. response-variable slope, 4 parameter fit with GraphPad Prism (GraphPad v 5.0, Software; San Diego, Calif.). Data was expressed as relative cell viability (ATP content) % vs. dose of antibody.

[3] = tested on: U266B1; experiment: Cell killing with drug-conjugated 2° antibody (internalization), U266B1; assay type: cell-based, human; conditions: Conjugate P 2° antibody 20 nM, 72 hrs
Protocol: as §1

B1: 11D6: chicken antibody, VH SEQ ID NO 198, VL SEQ ID NO 220 (antibody, V domains shown)
VH: AVTLDESGGGLQTPGGTLSLVCKASGFTFSSFNMFWVRQAPGEGLEWVAYIRNDGRSTSYGPAVKGRATISRDNGQSTVRLQLNNLRAEDTGTYFCAKTTCVGSGGCIDTWGHGTEVIVSS
VL: ALTQPSSVSANPGETVEITCSGGNSDYGWFQQKSPGSAPVTVIYRNNQRPSDIPSRFSGSGSGSTNTLTITGVQAEDEAIYYCGNVDFTDDVFGAGTTLTVL
modifications: Synthetic 11D6, VH; Synthetic 11D6, VL
ka [1]: 1.02e+06 M⁻¹ s⁻¹ | kd [1]: 0.000318 s⁻¹ | Span (%) [2]: 83% | EC50 [2]: 3.8 nM | EC50 [3]: 1.1 nM | Span (%) [3]: 67%

B2: 10G5: chicken antibody, VH SEQ ID NO 197, VL SEQ ID NO 219 (antibody, V domains shown)
VH: B1 VH with T17V, E43K, R52S, R56S, G92A, V102I
VL: B1 VL with E17K, S25Y, F30Y, V42L, R45Y, Q48K, G61K, N66G, G84A, F88S
modifications: Synthetic 10G5, VH; Synthetic 10G5, VL
Span (%) [2]: 82% | EC50 [2]: 3.5 nM | EC50 [3]: 1.9 nM | Span (%) [3]: 63%

B3: 9A8: chicken antibody, VH SEQ ID NO 196, VL SEQ ID NO 218 (antibody, V domains shown)
VH: B1 VH with E43K, R56N, T58A, G92A, F95Y, V102I
VL: B1 VL with E17K, N24S, R45S, D52G, G61K, N66G, G84A, F88Y
modifications: Synthetic 9A8, VH; Synthetic 9A8, VL
Span (%) [2]: 82% | EC50 [2]: 2.4 nM | EC50 [3]: 2.3 nM | Span (%) [3]: 42%

B4: 10F4: chicken antibody, VH SEQ ID NO 203, VL SEQ ID NO 225 (antibody, V domains shown)
VH: AVTLDESGGGLQTPGGALSLVCKASGFTFSGYNMGWVRQAPGKGLEYVAGITYGTGSYTAYGAAVKGRATISRDNGQSTLRLQLNNLRAEDTATYYCARGGGLNSYGCSGANIDAWGHGTEVIVSS
VL: ALTQPSSVSANLGGTVKITCSGGGNYFGSYYYGWYQQKAPGSAPVTVIYNNNNRPSDIPSRFSGSTSGSTSTLTISGVRAEDEAVYFCGGFDSSTDAIFGAGTTLTVL
modifications: Synthetic 10F4, VH; Synthetic 10F4, VL
Span (%) [2]: 87% | EC50 [2]: 1 nM | EC50 [3]: 0.36 nM | Span (%) [3]: 81%

B5: 10H1: chicken antibody, VH SEQ ID NO 211, VL SEQ ID NO 233 (antibody, V domains shown)
VH: AVTLDESGGGLQTPGGALSLVCKASGFTFSGYGMGWMRQAPGKGLEYVARINSAGSDTDYGAAVKGRATISRDNGQSTVRLQLNNLRAEDTATYFCTRGGGGASIDGWGHGTEVIVSS
VL: B4 VL with L12P, G14E, F27Y, D57N, T66K, S71G, S76T, R79Q, T95S
modifications: Synthetic 10H1, VH; Synthetic 10H1, VL
Span (%) [2]: 88% | EC50 [2]: 0.86 nM | EC50 [3]: 0.29 nM | Span (%) [3]: 89%

B6: 9E12: chicken antibody, VH SEQ ID NO 209, VL SEQ ID NO 231 (antibody, V domains shown)
VH: B5 VH with A17G, G31D, M34L, D57G, D59Y, A62S, K65D, A92G, F95Y
VL: B4 VL with L12P, G14E, N25S, F27Y, A39S, V47L, S71G, S76T, F87Y, G90S
modifications: Synthetic 9E12, VH; Synthetic 9E12, VL
Span (%) [2]: 80% | EC50 [2]: 1.2 nM | EC50 [3]: 1.4 nM | Span (%) [3]: 47%

B7: 9A5: chicken antibody, VH SEQ ID NO 208, VL SEQ ID NO 230 (antibody, V domains shown)
VH: AVTLDESGGGLQTPGGAVSLVCKASGFSISDYGMGWMRQAPGKGLQYVARIDHDGRYTDYGAVVKGRATISRDNGQSTVRLQLNNLRAEDTGTYYCTRGGGAASIDTWGHGTEVIVSS
VL: B4 VL with L12P, G14E, F27V, S29G, P44L, V47L, D57N, S76T, G90S
modifications: Synthetic 9A5, VH; Synthetic 9A5, VL
Span (%) [2]: 93% | EC50 [2]: 0.7 nM | EC50 [3]: 0.29 nM | Span (%) [3]: 84%

B8: 9H1: chicken antibody, VH SEQ ID NO 210, VL SEQ ID NO 232 (antibody, V domains shown)
VH: AVTLDESGGGLQTPGGALSLVCKGSGFTFSDYGMGWMRQAPGKGLQYVARINSAGSDTNYGSAVKGRATISRDDGQSTVRLQLSSLRAEDTGIYYCTRGGGGASIDGWGHGTEVIVSS
VL: B4 VL with L12P, G14E, N25S, F27Y, A39S, V47L, S71G, S76T, F87Y, G90S
modifications: Synthetic 9H1, VH; Synthetic 9H1, VL
Span (%) [2]: 74% | EC50 [2]: 1.3 nM | EC50 [3]: 1.1 nM | Span (%) [3]: 50%

B9: 10E10: chicken antibody, VH SEQ ID NO 212, VL SEQ ID NO 234 (antibody, V domains shown)
VH: AVTLDESGGGLQTPGGGLSLVCKASGFTFSSYGMGWMRQAPGKGLEFVARINSGGSSYTDYGSAVKGRATISRDDGQSTVRLQLNNLRAEDTGIYYCTRGGGGASIDGWGHGTEVIVSS
VL: B4 VL with L12P, G14E, F27A, A39S, V45L, N51S, T66L, S71G, S76T
modifications: Synthetic 10E10, VH; Synthetic 10E10, VL
Span (%) [2]: 46% | EC50 [2]: 3 nM | EC50 [3]: 2.5 nM | Span (%) [3]: 20%
